Assay results: patent US10632208B2, “Peptide-mediated drug delivery across epithelial barrier” (Purdue Research Foundation, priority 2017, dated 2020)

Key:
[1] = test system: Caco-2 cell monolayers; test: Transepithelial electrical resistance (TEER) of Caco-2 monolayers on Transwell inserts; assay type: cell-based, human
[2] = test system: Caco-2 cell monolayers; test: Apical-to-basolateral flux of paracellular marker FD4 through Caco-2 monolayers; assay type: cell-based, human; settings: LAP 1 μg/mL, over a 72-h period; TNF-α 10 ng/mL positive control
Procedure: To determine the effect of LAP on Caco-2 permeability at specified time points (0, 24, 48 and 72 h) following incubation with recombinant purified LAP, 100 μl of FD4 (1 mg/mL in DMEM) was added to the apical side and the fluorescence readings (Em: 485 nm; Ex: 520 nm; Spectramax, Molecular Devices) for the basal medium (100 μl) were measured. Human TNF-α (10 ng/mL, R&D Systems) was added to both apical and basal sides and used as a positive control.

[3] = test system: Caco-2 cells; test: Caco-2 cell viability assay (lactate dehydrogenase release); assay type: cell-based, human; settings: Caco-2 cells treated with purified recombinant LAP
Procedure: Caco-2 cell viability assay. To determine Caco-2 viability, cell culture supernatants from Caco-2 cells infected with WT, lap^−, lap^−lap^+, ΔinlA and ΔinlA inlA^+ strains (MOI 50, 2 h) grown on Transwell inserts or treated with the purified recombinant LAP for 24 or 48 h were assayed for lactate dehydrogenase release (Thermo Fisher Scientific). Two controls were included for calculation of percent cytotoxicity (LDH release). Low control consisted of supernatant from untreated Caco-2 cells with no exposure to bacteria. High control was from cells treated with 0.1% Triton X-100 for one minute.

[4] = test system: NF-κB(p65); test: Confocal immunofluorescence of p65 localization in Caco-2 cells; assay type: cell-based, human; settings: 30 min
Procedure: For antibody labeling in cells, Caco-2 cells, were grown to 40-50% confluence in four-chambered slides (Millipore). At the end of the treatment, the cells were fixed with 3.7% formaldehyde in PBS for 20 min and permeabilized and blocked with PBS containing 0.3% Triton X-100 and 3% BSA (Sigma-Aldrich) for 1 h at room temperature and then incubated with respective antibodies overnight at 4° C. Following antibody incubation, the cells were washed with PBS (3 cycles, 5 min) and incubated with FITC or Alexa Fluor 555-conjugated secondary antibody for 2 h at room temperature. The nuclei were stained with DAPI (500 ng/ml; Cell signaling) and slides were mounted in ProLong antifade reagent (Cell Signaling).
All images were acquired using a Nikon A1R MP Multiphoton (Nikon) Confocal fluorescence microscope using a 60× oil immersion objective equipped with the Nikon Elements software (Nikon) at the Purdue Bioscience Imaging Facility. The X-Z and Y-Z cross-sections were produced by orthogonal reconstructions from z-stack scanning at 0.15 μm intervals taken with 60× objective in 5 μm thick paraffin embedded tissue section. Three-dimensional reconstructions were performed using Nikon elements software (Nikon).

[5] = biological target: T1, Hsp60 / IKK-β (Homo sapiens, UniProt P10809); test: Co-immunoprecipitation of Hsp60 and IKKβ from Caco-2 cell lysates; assay type: cell-based; settings: LAP 1 μg/ml, 30 min
T1 construct: endogenous in cells; host or cells: Caco-2 (human colon carcinoma, ATCC HTB37)
Procedure: Caco-2 cells were treated with or without purified LAP (1 μg/mL) for 30 min, rinsed with cold PBS, and lysed in Nondiet P-40 (NP-40) lysis buffer (20 mM Tris HCl, pH 8,137 mM NaCl, 1% NP-40, 2 mM EDTA). The cell lysates were pre-cleared with 10 μl protein G agarose beads (MicroProtein Technologies) for 1 h and the lysates were incubated with 2 μg of anti-IKKβ, 2 μg of anti-Hsp60, rabbit serum or normal mouse serum overnight at 4° C. The lysates were further mixed with 20 μL protein G agarose beads for 3 h at 4° C. The beads were washed five times with 1 ml NP-40 lysis buffer. The protein precipitates were analyzed by immunoblotting, and the complexes were visualized by chemiluminescence assay.

[6] = test system: MLCK; test: Immunoblot of MLCK and P-MLC in whole-cell Caco-2 lysates; assay type: cell-based, human; settings: purified LAP 1 μg/mL, 60 min pi
Procedure: To extract the proteins from Caco-2 cells, cells were seeded in 6-well plates for 14-21 days. Following treatment, the cells were washed, scraped from the bottom of 6-well plates, suspended in PBS, and pelleted by centrifugation. Total protein from Caco-2 cells was extracted using the M-PER Extraction Kit (Thermo Fisher Scientific). Detergent-insoluble (membrane) and detergent-soluble (cytosolic) proteins were isolated using a Mem-Per Eukaryotic Protein Extraction Kit (Thermo Fisher Scientific) while the cytosolic and nuclear proteins were extracted using NE-PER Extraction Reagent (Thermo Fisher Scientific). To extract proteins from ileal epithelial cells, the epithelial cell fraction from ileal tissues were isolated as described above and the detergent-insoluble and the detergent-soluble proteins were isolated using a Mem-Per Eukaryotic Protein Extraction Kit.
To extract total protein from intact bacterial cells, sample solvent buffer and sonication (3 cycles of 20 min each) were used. […] The protein concentrations were determined by BCA assay (Thermo Fisher Scientific), and separated on SDS-PAGE gels (10-12.5% polyacrylamide) and electro-transferred to polyvinylidene difluoride (PVDF) membrane (Millipore). […] To compare the reaction intensities, the average band densities were determined using Quantity One software (Bio-Rad). […]

T1 sequence (P10809 27-573): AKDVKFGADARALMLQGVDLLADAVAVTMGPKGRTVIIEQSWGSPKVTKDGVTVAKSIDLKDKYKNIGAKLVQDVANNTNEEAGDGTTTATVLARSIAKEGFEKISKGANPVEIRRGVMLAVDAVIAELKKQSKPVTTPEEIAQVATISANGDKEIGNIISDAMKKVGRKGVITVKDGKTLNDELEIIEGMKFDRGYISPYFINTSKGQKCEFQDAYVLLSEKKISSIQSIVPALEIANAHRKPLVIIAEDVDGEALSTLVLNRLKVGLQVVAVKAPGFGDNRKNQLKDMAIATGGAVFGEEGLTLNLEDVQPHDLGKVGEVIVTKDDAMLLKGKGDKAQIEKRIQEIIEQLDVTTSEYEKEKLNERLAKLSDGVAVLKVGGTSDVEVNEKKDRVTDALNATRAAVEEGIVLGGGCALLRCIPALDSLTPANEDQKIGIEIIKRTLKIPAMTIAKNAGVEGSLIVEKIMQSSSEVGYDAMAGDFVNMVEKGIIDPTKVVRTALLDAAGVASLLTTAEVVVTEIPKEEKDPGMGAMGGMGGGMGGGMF

B1: LAP: Listeria adhesion protein, alcohol acetaldehyde dehydrogenase of Listeria monocytogenes, 866 aa, 94 kDa; recombinant, histidine-tagged form SEQ ID NO: 10 (protein)
chain: MAIKENAAQEVLEVQKVIDRLADNGQKALKAFESYNQEQVDNIVHAMALAGLDQHMPLAKLAVEETGRGLYEDKCIKNIFATEYIWNNIKNNKTVGVINEDVQTGVIEIAEPVGVVAGVTPVTNPTSTTLFKAIIAIKTRNPIIFAFHPSAQRCSSAAAKVVYDAAIAAGAPEHCIQWVEKPSLEATKQLMNHDKVALVLATGGAGMVKSAYSTGKPALGVGPGNVPAYIDKTAKIKRSVNDIILSKSFDQGMICASEQAVIVDKEVAKEVKAEMEANKCYFVKGAEFKKLESYVINPEKGTLNPDVVGKSPAWIANQAGFKVPEDTKILVAEIKGVGDKYPLSHEKLSPVLAFIEAANQAEAFDRCEEMLVYGGLGHSAVIHSTDKEVQKAFGIRMKACRIIVNAPSAQGGIGDIYNGFIPSLTLGCGSYGKNSVSQNVSATNLLNVKRIADRRNNMQWFKLPPKIFFEKYSTQYLQKMEGVERVFIVTDPGMGSFKYVDVVIEHLKKRGNDVAYQVFADVEPDPSDVTVYKGAELMKDFKPDTIIALGGGSAMDAAKGMWLFYEHPEASFFGLKQKFLDIRKRTFKYPKLGGKAKFVAIPTTSGTGSEVTPFAVITDKENNIKYPLADYELTPDVAIVDAQYVTTVPAHITADTGMDVLTHAIESYVSVMASDYTRGLSIRAIELVFENLRESVLTGDPDAREKMHNASALAGMAFANAFLGINHSLAHKIGPEFHIPHGRANAILMPHVIRYNALKPKKHALFPRYESFRADEDYARISRIIGFPAATTEEGVKSLVDEIIKLGKDVGIDMSLKGQNVAKKDLDAVVDTLADRAFMDQCTTANPKQPLVSELKEIYLEAYKGV
modifications: Listeria monocytogenes
- LAP concentration giving maximum reduction in TEER ([1]; apical treatment, 1-1000 ng/mL, 48-h period): 500 to 1000 ng/mL
- reduction in TEER ([1]; purified recombinant LAP added to both the basolateral and apical compartments): 25±2%
- reduction in TEER ([1]; purified recombinant LAP added to the apical compartment): 12±1%
- reduction in TEER ([1]; purified recombinant LAP added to the basolateral compartment): 27±1%
- FD4 permeability [2]: significant increase in FD4 permeability equivalent to TNF-α
- cytopathic or cytotoxic effects (LDH assay) [3]: without causing any cytopathic or cytotoxic effects
- localization of p65 ([4]; Caco-2 cells, LAP 1 μg/mL or TNF-α 10 ng/mL): in the nucleus
- localization of p65 ([4]; Hsp60 knocked-down Caco-2 cells): retained p65 within the cytoplasm
- localization of p65 ([4]; shRNA vector control Caco-2 cells): nuclear translocation of p65
- interaction of Hsp60 with IKK-β [5]: Hsp60 co-precipitation
- increase of MLCK protein expression levels [6]: 249±9%
